Article PMC2115112

Target: vimentin (rat (endogenous in glioma C6 cells)) (UniProt P31000)
Test: co-sedimentation

vimentin (rat (endogenous in glioma C6 cells)), sequence (P31000 whole entry): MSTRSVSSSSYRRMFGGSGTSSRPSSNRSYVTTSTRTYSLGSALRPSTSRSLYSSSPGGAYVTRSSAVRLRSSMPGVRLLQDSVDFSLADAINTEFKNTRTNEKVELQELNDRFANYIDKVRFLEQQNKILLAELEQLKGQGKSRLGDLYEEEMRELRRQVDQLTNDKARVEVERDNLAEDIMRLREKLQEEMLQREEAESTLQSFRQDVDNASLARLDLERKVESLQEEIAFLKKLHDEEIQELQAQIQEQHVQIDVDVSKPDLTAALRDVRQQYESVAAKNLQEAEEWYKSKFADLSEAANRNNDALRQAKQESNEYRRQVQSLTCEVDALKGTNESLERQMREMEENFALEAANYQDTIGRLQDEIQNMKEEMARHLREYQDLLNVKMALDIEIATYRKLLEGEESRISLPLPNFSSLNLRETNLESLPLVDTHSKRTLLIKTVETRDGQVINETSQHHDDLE

- mass ratio of plectin to vimentin in the pelleted aggregates: 0.25
- mass ratio plectin/vimentin in the pellet P1 (round 1): 0.28
- mass ratio plectin/vimentin in the pellet P2 (round 2): 0.23
- percent of the total plectin recovered in the pellet of the mixture: 27%
- percent of the total vimentin recovered in the pellet of the mixture: 32%
Substance: plectin (Mr 300,000), P30427 1-4687
